The series in a line: soluble on expression in E. coli; label from the status in PepcDB or PDB records.
For the sequence “MEFIMKTRMFEEEGWIRKKCKVCGKPFWTLDPDRETCGDPPCDEYQFIGKPGIPRKYTLDEMREKFLRFFEKHEIYPHGRVKRYPVLPRWRDDVLLVGASIMDFQPWVISGEADPPANPLVISQPSIRFTDIDNVGITGRHFTIFEMMAHHAFNYPGKPIYWMDETVELAFEFFTKELKMKPEDITFKENPWAGGGNAGPAFEVLYRGLEVATLVFMQYKKAPENAPQDQVVVIKGEKYIPMETKVVDTGYGLERLVWMSQGTPTAYDAVLGYVVEPLKKMAGIEKIDEKILMENSRLAGMFDIEDLGDLRYLREQVAKRVGITVEELEKAIRPYELIYAIADHTKALTFMLADGVVPSNVKAGYLARLLIRKSIRHLRELGLEVPLSEIVALHIKELHKTFPEFKEMEDIILEMIELEEKKYAETLRRGSDLVRREIAKLKKKGIKEIPVEKLVTFYESHGLTPEIVKEIAEKEGVKVNIPDNFYSMVAKEAERTKEEKGEELVDFELLKDLPDTRRLYYEDPFMKEFDAKVLRVIKDWVILDATAFYPEGGGQPYDTGVLIVNGREVKVTNVQKVGKVIIHKVEDPGAFKEGMIVHGKIDWKRRIQHMRHHTGTHVLMGALVRVLGRHVWQAGSQLTTDWARLDISHYKRISEEELKEIEMLANRIVMEDRKVTWEWLPRTTAEQKYGFRLYQGGVVPGREIRVVKIEDWDVQACGGTHLPSTGLVGPIKILRTERIQDGVERIIFACGE”, the “soluble on expression in E. coli” value is “soluble”.
Take “MSPNPVEKAAILRIIDSIDARDDDYCAHEFNVYRWLVAYGNEEEEAAKALKRHLNIRKTIDLNSYSSKTELEEDELNKYVPIDVIGQNHQDDNKVLMFERTGKIDISGLVDNVLMHKFMQIKLKMMEGVHQKVVAAERKTGRQSGGLFIMDLDGISFSPKLISVLTGPYRIMWGTLFDHYPQLLQKIIIVNAPSFVNVLHQACSPFLPEDYKEKIVITSEPAIGAIQKHADKCFLPSDLGGDLEKTTSLPMAPFPKMNKKYEKEKEKVSLLAISVPAGKYTVQKFSWKKGDEVEFFLHNESSFHYFMFHSEEDTKDMDLWREMTVGCERPALSQIDSWKYTVPIDGFYFIRYGNHNSWYFSTTVNVNHFISNENGERIELVPIETFNI”: the “soluble on expression in E. coli” value is “not soluble”.
With “MLASIPLKDIQIQDRFWKERLDLVRKEIIPYQWEAMNDRVPNAEPSHCIENYRIAAGQAQGSFYGEVFQDSDLAKWLEAVAYVLSFQPDPKLEKLADEAIELVCAAQQSDGYLNTFFTIKEPDQRWRNLREGHELYCAGHMMEAAVAYFEATGKRRLLDAMMRFADLICNTFGPEEGKIHAYPGHEEVELALFRMYRATGVRRYLELSAYFINCRGTGENYFRKENDRPGYLPIWGSMDTNSDMSYYQAHQPVREQKQAAGHAVRAMYLYSAMADLAGELKDEGLLNACKTLWNNVTERQMYVTGGVGASGILERFTTDYDLSNEMAYAESCASIGLMLFGLRMNRVTRQAQYFDPVERALYNTVLASVALDGKSFFYVNPLEVWPKACMPYTSKEHVKPVRQPWFSCACCPPNVARTFASLGQYIWAQDSQRVYLNLFISSTVKAKNGAILKLETEFPMGNVLKITSDQVLELAVRIPGYGKNFRANVSYRKENGYGVFELEAGKELEIQFDAPACFIRANPEVRACSGKVCIQRGPVVYCLEEIDNGSNLSALSVDTAVSPGERESDIPGGLMITASGKRRRPWADDKLYGEIPSQYEETVLQAVPYAFWGNREKGEMTVWIRESLEHHHHHH”, the “soluble on expression in E. coli” value is recorded as “not soluble”.
With “VPFDPGKIERAIAAAGQATGEFDPQQAQALAERVVERLPERACLDIERVQDLVERVLMEAGHYPTARAYVVYRERHGRLRRERKTLVDVAASMNEYLSREDWRVRANANQGYSLGGLILNVSGKVTANYWLDEVYDADIAAAHRDADLHIHDLDMLAGYCAGWSLRTLLNEGLNGVPGRVEAGPPKHLGSALGQMVNFLGTLQNEWAGAQAFSSFDTYLAPYVRKDRLDYASVRQALQEFIYNLNVPSRWGTQTPFTNLTFDWVCPDDLRDQVPRIGGEEMPFAYGELQAEMDLINRAYIEVMQAGDAHGRVFTFPIPTYNITHDFPWDSDNATRLFEMTARYGLPYFQNFLNSDMQPNQVRSMCCRLQLDVRELLKRGNGLFGSAEQTGSLGVVTINCARLGYRHRGDAAGLYRQLDHLLELAFASLELKRKVIQQHMDAGLYPYTRRYLGTLRNHFSTIGVNGLHEMVRNFSDDREGLHSEAGREMALALLDHVRARLVGFQEDSGHLYNLEATPAEGTTYRFAREDRKRYPRILQAGTPEAPYYTNSSQLPVGFTDDPFEALELQDALQCKYTGGTVLHLYMAERISSAEACKTLVRTALGRFRLPYLTVTPTFSICPRHGYLAGEHEFCPKCDEELLQRSTPKSCCGGC”, the “soluble on expression in E. coli” value is on record as “not soluble”.
“MDQIRQLAQWIKEANTIAVLTGAGMSTESGIPDFRSENGLYAQEDNVEYYLSEYYYKKDPVDFWRRFKRMFSLKMMGGFAPNDGHRFLRWLEEMGKTVTILTQNIDGLHTKAGSTNVIELHGTLQTATCPSCGNKYDLSFINRHEVPRCEKCQTIVKPDVVLFGGLVPRMEEAFAAAAASDLLLAMGTSLEVAPVNQIPFYVAAESPATRKVLINKTATRMDGMFDLVIYGGIGKTVASVRKQIQAE”: the “soluble on expression in E. coli” value is “soluble”.
As to “MGSDKIHHHHHHMAIACVMTRASCGVQAPKVIVEVHLSNGLPGFSLVGLPEASVKEAKERVRSALINAGFEFPMQRITVNLAPADLPKQGGRYDLPIAIGILAASEQIPKKAIADAEFVGELALTGQVRPCVGLLPAIIAARDDGHPMFMPLDNRHEAELVGYQQCHFVADLQHLAAFIHGQGQLPKVDNQTQWITESAVDPKLCLSDVIGQYQAKQGLEIAAAGGHNLLLMGPPGTGKSMLASRIIPLLPNLSYQEAIEVAAIHSVAGLNTPSHNFLQRPFRSPHHTCSAISLVGGGSVPKPGEISLAHRGILFLDELPEFPRRVLDCLREPMETGEVVISRAAAKLTFASRFQLIAAMNPSPCGNVDKARSTPDQIQRYLSRLSGPFLDRFDLTVDVPKLPSGALSQANIQAETSISVAARVRKAREKQLERSGVLNNELSPKALKKVANLDQANLIFLEQSVQLLGLSVRSFHKIQRVACTIADLQEEAKVDRAHLAQALGYRAMDRLIARLRQQ”, the “soluble on expression in E. coli” value is given as “not soluble”.
As for “GPGHAGIFTFEEPVTHVSESIGIMEVKVLRTSGARGNVIVPYKTIEGTARGGGEDFEDTCGELEFQNDEIVKTISVKVIDDEEYEKNKTFFLEIGEPRLVEMSEKKALLLNELGGFTITGKYLYGQPVFRKVHAREHPIPSTVITIAEEYDDKQPLTSKEEEERRIAEMGRPILGEHTKLEVIIEESYEFKS”, the entry is “soluble”; as for “MNTSILAPPESLLEAQKVRLAIREGYDRPTAGMANGLTQVNMISVPQDWAYDFLLYTQRNPQSCPVLDVIDAGQFQSRLIQDKQHDIRTDFPRYRIWEYGQCVDEVNDATSIWNNHPDLVTFLIGCSFSFESALLNAGIEVRHITDQRNVPMYLSNIPCASAGRISGNMVVSMRPIPAAQVSQAVQITAKMPRVHGAPVHIGDPKSLGIADLSKPDFGDFPRILDGEIPVFWACGVTPQAAVMRSKVPFAISHAPGYMLITDVPDQAWMLLEHHHHHH”, “not soluble”; as for “MSVKMKKCSREDLQTLQQLSIETFNDTFKEQNSPENMKAYLESAFNTEQLEKELSNMSSQFFFIYFDHEIAGYVKVNIDDAQSEEMGAESLEIERIYIKNSFQKHGLGKHLLNKAIEIALERNKKNIWLGVWEKNENAIAFYKKMGFVQTGAHSFYMGDEEQTDLIMAKTLILEHHHHHH”, “soluble”.
Turning to “MSQEDLELFQQMMGDVKTITHDTVELKKAHQVTEAQLAKREAAVSLADHDPEALSIDHAPMLKPDDMLEFKRDGVQDGVYRKLRLGKYPIQARLDLHRKTLKEARSEVIQFIRQCMAMDIRTLLIVHGRGERSTPPALMKSFVSHWLTQISEVQCAHSAQRLHGGTGAVYVLLRKSAEKKAENRERHQKRLG”, the “soluble on expression in E. coli” value is “not soluble”.
For the sequence “MGSDKIHHHHHHMPLQQESARQERKPVILMSMGQQDRNGHAYQVMTHKYMQPVVDISDCIPLLIPTCFGVADIEQYLDMADGVYLSGAASNIDPSLYGQENLTPEKKQDLARDLVDIALIKGAVKRGLPILGICRGMQEMNIAFGGDLYQKVHDEDHLNDHREDPDTPPDVQYGASHSISMVKGSWLHKLLGDTIEVNSLHGQGIKTLGKGLEALALAEDGLVEALHAPYLPQFTLGVQWHPEWKALENPDSIKIFKAFGEACRRRAGSALDLRIDKAS”, the “soluble on expression in E. coli” value is reported as “not soluble”.
For the sequence “MDCDIASYHVDSFDFLVSKGCQFAAQAVPAEKFRLKNGDAVTMKFTSAQLHKPTLDTGAKLTSDTLPLLPAECRQRGLTYAGNLKVGIDVHVNGSRLDIIEIILGKVPIMLRSEGCHLRGMSRKELVVAGEEPIEKGGYFIVNGSEKVIRLLIANRRNFPIAIIRKTFKEKGKLFSEFGVMMRSVKENHTAVMMTLHYLDTGTMQLALQFRREIFYVPLMYIVKALTDKNDAVISAGFKRGRNQDQFYSSCILNMLAQCQEEEILNQEAAIRAIGSRFRVAVSDRVAPWEDDLEAGRFIIRECVLIHLDSDEEKFHTLAYMTQKLIALVKGECAPETPDNPQFQEASVSGHILLLILRERMENIIGMVRRKLEYMSSRKDFILTSAAILKALGNHTGGEITRGMAYFLATGNLVTRVGLALQQESGFSVIAERINQLRFVSHFRAIHRGAFFMEMRTTDVRKLRPEAWGFICPVHTPDGAPCGLLNHVTASCRIVTDLSDNSNVPSLLAELGMYTHKTVALAPPGEELYPVLMNGRFLGYVPITKAASIERYLRCAKVAKDARIPYTSEIALVRRSTDIKNIQTQYPGIYILSDAGRLIRPVRNLAMDAVEHIGTFEQVYLSVVLDPEEAEPGVTMHQELHPSCLFSFAGNLIPFPDHNQSPRNVYQCQMGKQTMGTAVHAWHSRADNKMYRLQFPQQPMLKLEAYEKYEMDEYPLGTNACVAVISYTGYDMEDAMTINKASYQRGFAHGTVIKVERINLVTERERKTIFYRNPREEIKTVGPDGLPIPGRRYFLDEVYYVTFNMETGDFRTHKFHYAEPAYCGLVRIVEQGEGDSGAKHALIQWRIERNPIIGDKFASRHGQKGINSFLWPVESLPFSETGMVPDIIFNPHGFPSRMTIGMMIESMAGKAAATHGENYDASPFVFNEDNTAINHFGELLTKAGYNYYGNETFYSGVDGRQMEMQIFFGIVYYQRLRHMIADKFQVRATGPIDPITHQPVKGRKKGGGIRFGEMERDAIIAHGTSFVLQDRLLNCSDRDVAYACRRCGSLLSVLMSSRAGSHLLKKKRKDDEPLDYTETQRCRTCDKDDQVFLLQVPRVFRYLTAELAAMNVKIKLGIEHPSKVTGS”, the “soluble on expression in E. coli” value is “not soluble”.
As for “MAHHHHHHMPRGGHKGGLFPVSGIKWGMNERIKKRGLYHNRREDILTPRWGYRYENENKKYLPDGSSKSFDIDSSRAWPVDKAQWKYYYNINESRYLWPSICANNPEIKNYILNIIENTDTYFSGIGLEQVSNERKNKNLKKDYTNNSYYKNNYLYNLVHELNNTIYPQIEINLNNNLKRGRIQKLYDIIKEENIWKTTQKIKTPESENVFPYVDDNATLIRELPLSEILYTKSNLRLKVRRHPKWMNVQFLKKKVKIPYLYR”, the entry is “not soluble”; as for “MGSDKIHHHHHHMKVAKFGGSSLASASQIKKVFDIVQADKQRKFIVVSAPGKRSGADTKVTDALIAYYKAYKSADEKGIHYYQNWIIERFREIYDELGLKSPVINQIAENINHLAQLDLDNVFTYDTFLAAGENNNAKLVADFFNHSGLPSRYVHPSDAGIMVSSDPGNARLLGGAYEHIKYLNELEETLIIPGFFGITKEGEVCTFSRGGSDITGSIIAAGVRAELYENFTDVNGIFAAHPGIVKNPAYISELTYREMRELAYSGFSVLHDEALVPAYRAHVPLVIKNTNNPDHPGTKIVVQRETKGSPVVGIASSSAFSSLYVSKYLMNREVGFGRKVLSVLENLGVRFEHMPTGIDDMSIIIRSRYLTQPISKALISNLTESLHPDEVYIDRDFSIITIVGEDMKEHVGVTARATAALSKQGISIAMLSQGSSEVSVMFIVKEKYEKEALKAIYSAFFD”, “not soluble”.

Source of the values: the DeepSol protein solubility set.
